The source of these data is paper PMC7758880 (Molecular Cell, 2020).

B2: Nse4 with 8xHis and 3xHA tags (natural protein)
chain: MSSTVISRKRRNSTVTEPDSSGETRKQKKSRSDEKSSSSKDGDPQLEFKVLQGYRDLESEMHKGRAQVTRTGDIGVAMDNLNAVDSLFNKVIGIKNNGLFAHDARAMVSISELAQISVRNLKFDDSRSMVNLENIVNSLKRYMLKEHFKLNNIAENRNDLTLAADEQSAADQQEESDGDIDRTPDDNHTDKATSSFKATSMRHSYLQQFSHYNEFSQFNWFRIGALYNTISKNAPITDHLMGPLSIEKKPRVLTQRRRNNDQVGEKITAEKITQHSLNSTQQETTPEQVKKCFKKLSKKLGPEGSINLFKFIIDPNSFSRSIENLFYTSFLIKEGKLLMEHDEEGLPTIKIKQSISHTDSRSKEIERQRRRAAHQNHIIFQMDMPTWRKLIKKYNITSPFLD
B5: Smc5 (natural protein)
chain: MTSLIDLGRYVERTHHGEDTEPRSKRVKIAKPDLSSFQPGSIIKIRLQDFVTYTLTEFNLSPSLNMIIGPNGSGKSTFVCAVCLGLAGKPEYIGRSKKVEDFIKNGQDVSKIEITLKNSPNVTDIEYIDARDETIKITRIITRSKRRSDYLINDYQVSESVVKTLVAQLNIQLDNLCQFLSQERVEEFARLKSVKLLVETIRSIDASLLDVLDELRELQGNEQSLQKDLDFKKAKIVHLRQESDKLRKSVESLRDFQNKKGEIELHSQLLPYVKVKDHKEKLNIYKEEYERAKANLRAILKDKKPFANTKKTLENQVEELTEKCSLKTDEFLKAKEKINEIFEKLNTIRDEVIKKKNQNEYYRGRTKKLQATIISTKEDFLRSQEILAQTHLPEKSVFEDIDIKRKEIINKEGEIRDLISEIDAKANAINHEMRSIQRQAESKTKSLTTTDKIGILNQDQDLKEVRDAVLMVREHPEMKDKILEPPIMTVSAINAQFAAYLAQCVDYNTSKALTVVDSDSYKLFANPILDKFKVNLRELSSADTTPPVPAETVRDLGFEGYLSDFITGDKRVMKMLCQTSKIHTIPVSRRELTPAQIKKLITPRPNGKILFKRIIHGNRLVDIKQSAYGSKQVFPTDVSIKQTNFYQGSIMSNEQKIRIENEIINLKNEYNDRKSTLDALSNQKSGYRHELSELASKNDDINREAHQLNEIRKKYTMRKSTIETLREKLDQLKREARKDVSQKIKDIDDQIQQLLLKQRHLLSKMASSMKSLKNCQKELISTQILQFEAQNMDVSMNDVIGFFNEREADLKSQYEDKKKFVKEMRDTPEFQSWMREIRSYDQDTKEKLNKVAEKYEEEGNFNLSFVQDVLDKLESEIAMVNHDESAVTILDQVTAELRELEHTVPQQSKDLETIKAKLKEDHAVLEPKLDDIVSKISARFARLFNNVGSAGAVRLEKPKDYAEWKIEIMVKFRDNAPLKKLDSHTQSGGERAVSTVLYMIALQEFTSAPFRVVDEINQGMDSRNERIVHKAMVENACAENTSQYFLITPKLLTGLHYHEKMRIHCVMAGSWIPNPSEDPKMIHFGETSNYSFD

The test “Smc5” concerns the target B5. The test is described as follows: cross-linking.
Test [1] has as its target T1, Smc6 with a triple StrepII tag (S. cerevisiae, UniProt Q12749 1-1114).
T1 sequence: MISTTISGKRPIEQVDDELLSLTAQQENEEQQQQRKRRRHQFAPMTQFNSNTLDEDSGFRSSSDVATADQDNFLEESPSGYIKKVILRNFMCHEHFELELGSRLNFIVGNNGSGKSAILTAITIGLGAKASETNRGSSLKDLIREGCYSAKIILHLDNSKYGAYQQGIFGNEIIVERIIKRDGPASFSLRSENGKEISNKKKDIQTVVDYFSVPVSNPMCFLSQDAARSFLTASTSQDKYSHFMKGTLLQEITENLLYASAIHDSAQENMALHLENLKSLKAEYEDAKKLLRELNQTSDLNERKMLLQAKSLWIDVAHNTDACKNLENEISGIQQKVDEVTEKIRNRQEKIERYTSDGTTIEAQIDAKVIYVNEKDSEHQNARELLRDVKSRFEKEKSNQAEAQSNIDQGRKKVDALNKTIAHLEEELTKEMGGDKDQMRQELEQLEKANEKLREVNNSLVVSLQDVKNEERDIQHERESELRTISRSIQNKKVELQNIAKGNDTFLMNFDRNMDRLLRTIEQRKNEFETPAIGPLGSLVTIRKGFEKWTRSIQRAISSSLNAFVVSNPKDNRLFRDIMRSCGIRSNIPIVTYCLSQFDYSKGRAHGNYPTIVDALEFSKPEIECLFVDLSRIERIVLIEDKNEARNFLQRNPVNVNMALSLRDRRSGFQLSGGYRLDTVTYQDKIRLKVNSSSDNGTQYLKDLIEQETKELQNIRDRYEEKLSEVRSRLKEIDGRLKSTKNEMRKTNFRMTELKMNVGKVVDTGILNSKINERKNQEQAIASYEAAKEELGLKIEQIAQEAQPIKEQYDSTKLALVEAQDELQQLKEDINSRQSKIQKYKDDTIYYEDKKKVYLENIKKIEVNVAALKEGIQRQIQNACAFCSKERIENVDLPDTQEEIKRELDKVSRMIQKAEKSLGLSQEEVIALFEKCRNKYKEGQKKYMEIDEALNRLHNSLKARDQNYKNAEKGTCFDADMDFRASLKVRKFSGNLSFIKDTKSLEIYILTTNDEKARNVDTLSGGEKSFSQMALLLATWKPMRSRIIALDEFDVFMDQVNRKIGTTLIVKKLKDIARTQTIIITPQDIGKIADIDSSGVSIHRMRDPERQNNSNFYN
Put plainly: cross-linking.

For test [2], the target named is T1, Smc6 with a triple StrepII tag. The test is described as follows: affinity purification with mass spectrometry.
Test [3] addresses B2. The test is described as follows: cross-linking.

B1: Nse2 (enzyme)
chain: MALNDNPIPKSVPLHPKSGKYFHNLHARDLSNIYQQCYKQIDETINQLVDSTSPSTIGIEEQVADITSTYKLLSTYESESNSFDEHIKDLKKNFKQSSDACPQIDLSTWDKYRTGELTAPKLSELYLNMPTPEPATMVNNTDTLKILKVLPYIWNDPTCVIPDLQNPADEDDLQIEGGKIELTCPITCKPYEAPLISRKCNHVFDRDGIQNYLQGYTTRDCPQAACSQVVSMRDFVRDPIMELRCKIAKMKESQEQDKRSSQAIDVL
For B1, the binding result (in the test with Smc5; in test [1]) was “binds” each time.
In the case of B2, the binding result (with Smc5; in test [1]) was “binds” each time.

B3: Nse1 (natural protein)
chain: MEVHEEQVSAPVTGDATAKYLLQYILSARGICHENALILALMRLETDASTLNTEWSIQQWVDKLNDYINAINVKLNLLGYKIIRINHGIGRNAVTLKAKQNFESFEDNTAIRAHNNDYAVLQSIVLPESNRFFVYVNLASTEETKLATRFNQNEIEFMKWAIEQFMISGETIVEGPALETSIIVKEVNRILVAATGDSNLAKWRKFSTFTVGSTNLFQFQELTATDIEDLLLRLCELKWFYRTQEGKFGIDLRCIAELEEYLTSMYNLNTCQNCHKLAIQGVRCGNESCREENEETGENSLSQIWHVDCFKHYITHVSKNCDRCGSSLITEGVYVI
Consider B3, for which the binding result (with Smc5; in test [1]) was “binds” in each case.

B4: Nse5 (natural protein)
chain: MDGALINSVLYVSPRNGAHYFVELTEKHLLAFEMLNSMCLLENYDHVLLFLECQFGKSHNLAVIPFDIILVLFTLSTLSEYYKEPILRANDPYNTSRETLSRRALKLLQKYLAILKEFDSEQYNLYDLELLRCQFFLAIDTLTPKKQKWGFDRFRRTKSESGVTYRQNASVDPELDQAKTFKNPYRSYISCLEQRNTILGNRLLNLKLNEPGEFINMILWTLSNSLQESTPLFLSSHEIWMPLLEILIDLFSCRQDYFIQHEVAQNVSKSLFVQRLSESPLAVFFESLNTRNFANRFSEYVFLNCDYKLPSDNYATPVHPVYNGENTIVDTYIPTIKCSPLYKSQKSLALRRKLIGSCFKLLLRVPDGHRLITPRIVADDVIQGISRTLASFNDILQFKKFFMTENLSQESYFIPLLAEGTLSEILKDTQECVVILTLVENLSDGVSFCNEVIGLVKSKCFAFTEQCSQASYEEAVLNIEKCDVCLLVLLRYLLHLIGTEAILDAKEQLEMLHAIEKNDSGRRQWAKALNLGNDPPLLYPIVSQMFGVHDKSVIIE
As to B4, the binding result (with Smc5; in test [1]) was “binds” each time.
As for B5, the binding result in test [2] is “binds”.

B6: Nse3 (natural protein)
chain: MSSIDNDSDVDLTEDLAVAKIVKENPVARKMVRYILSRGESQNSIITRNKLQSVIHEAAREENIAKPSFSKMFMDINAILYNVYGFELQGLPSKNNMNAGGNGSNSNTNKSMPEPLGHRAQKFILLNNVPHSKNFDDFKILQSAHTYEELIVTGEYIGDDIASGTSNTLESKLSTDRDLVYKGVLSVILCIVFFSKNNILHQELIKFLETFGIPSDGSKIAILNITIEDLIKSLEKREYIVRLEEKSDTDGEVISYRIGRRTQAELGLESLEKLVQEIMGLEKEQTKSLHDDIIKSIGDSYSI
On to B6, for which the binding result (in test [3]; with Smc5; in test [1]) was “binds” each time.
